Assay results taken from PMC5759053.

Biological target: Positive controls (Ci-M1; TRPV4-Ci, each with Ce-M1)
Assay: FRET or BRET

Chain of cerulean-AQP4 M1 (P55088 whole entry): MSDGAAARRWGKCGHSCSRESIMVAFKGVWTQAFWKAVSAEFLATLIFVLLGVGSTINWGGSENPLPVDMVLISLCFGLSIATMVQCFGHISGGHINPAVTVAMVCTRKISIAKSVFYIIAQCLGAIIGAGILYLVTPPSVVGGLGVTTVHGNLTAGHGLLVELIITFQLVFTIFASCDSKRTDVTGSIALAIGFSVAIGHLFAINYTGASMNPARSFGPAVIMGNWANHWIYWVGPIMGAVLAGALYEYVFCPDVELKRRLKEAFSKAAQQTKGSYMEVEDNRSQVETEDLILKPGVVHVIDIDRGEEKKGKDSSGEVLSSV

- FRET efficiency: 8 to 10%
Substance: cerulean-AQP4 M1 (from UniProt P55088-1 1-323) (natural protein)
